From patent publication US8114831B2, “Guanylate cyclase receptor agonists for the treatment of tissue inflammation and carcinogenesis” (Synergy Pharmaceuticals Inc., priority 2001, dated 2012) come the findings set out here.

For data set [1], the target named is T1, guanylate cyclase receptor (Homo sapiens, UniProt P25092).
T1 construct: host or cells: T84 human colon carcinoma cells
The data set is described as follows: T84 cell-based assay for determining the intracellular levels of cGMP. The note with it: for ability to enhance intracellular levels of cGMP (ranking in words): T84 cell-based assay, text summary of Table 4; for cGMP Level (intracellular cGMP level observed in T84 cells): 1 micromolar peptide agonist, 30 minutes. The procedure:
Cell Culture: Human T84 colon carcinoma cells were obtained from the American Type Culture Collection at passage 52. Cells were grown in a 1:1 mixture of Ham's F-12 medium and Dulbecco's modified Eagle's medium (DMEM) supplemented with 10% fetal bovine serum, 100 U penicillin/ml, and 100 μg/ml streptomycin. The cells were fed fresh medium every third day and split at a confluence of approximately 80%.
(§1) T84 cell-based assay for determining the intracellular levels of cGMP: Peptide analogs were custom synthesized by Multiple Peptide Systems, San Diego, Calif., and by Princeton Biomolecules, Langhorne, Pa. Biological activity of the synthetic peptides was assayed as previously reported (15). Briefly, the confluent monolayers of T-84 cells in 24-well plates were washed twice with 250 μl of DMEM containing 50 mM HEPES (pH 7.4), pre-incubated at 37° C. for 10 min with 250 μl of DMEM containing 50 mM HEPES (pH 7.4) and 1 mM isobutylmethylxanthine (IBMX), followed by incubation with peptide analogs (0.1 nM to 10 μM) for 30 min. The medium was aspirated, and the reaction was terminated by the addition of 3% perchloric acid. Following centrifugation, and neutralization with 0.1 N NaOH, the supernatant was used directly for measurements of cGMP using an ELISA kit (Caymen Chemical, Ann Arbor, Mich.).

A short description of data set [2]: Heat stability: peptide solutions heated at 95° C., then tested for biological activity in the T84 cell-based assay. It counts as physicochemical. The note with it: 10 micromolar solution, read-out T84 cell-based assay. The procedure: as §1
To examine heat stability, 10 micromolar solutions of peptide analogs were heated at 95° C. for up to 90 minutes. At specific times during the treatment, samples were tested for their biological activity in the T84 cell-based assay. […] Based on energy calculations and 3D structure, we expected that the negatively charged carboxyl group of the side chain in position 3 of SEQ ID NO:1 specifically interacts with a positively charged binding site on the receptor. […] At the same time, to ensure efficiency of this particular interaction, an entire system of the long-range electrostatic interactions between ligand and receptor should be well balanced. Since the Glu^2 side chain presents more conformational possibilities compared to the Asp^2 side chain, this balance may be slightly changed in SP302 (double substitution of Asp's for Glu's) compared to SP304 (single substitution of Asp^3 for Glu^3). Indeed, biological activity of SP 304 is the best amongst the analogs evaluated.

For data set [3], the target named is T1, guanylate cyclase receptor. As to the kind of experiment: T84 cell-based assay for determining the intracellular levels of cGMP. The note with it: for intracellular production of cGMP at different pH values: pH 5 to 7.

Positions of bridges follow the written chain, without caps; N, C: chain ends. No end group written: not given here.

T1 sequence (P25092 24-1073): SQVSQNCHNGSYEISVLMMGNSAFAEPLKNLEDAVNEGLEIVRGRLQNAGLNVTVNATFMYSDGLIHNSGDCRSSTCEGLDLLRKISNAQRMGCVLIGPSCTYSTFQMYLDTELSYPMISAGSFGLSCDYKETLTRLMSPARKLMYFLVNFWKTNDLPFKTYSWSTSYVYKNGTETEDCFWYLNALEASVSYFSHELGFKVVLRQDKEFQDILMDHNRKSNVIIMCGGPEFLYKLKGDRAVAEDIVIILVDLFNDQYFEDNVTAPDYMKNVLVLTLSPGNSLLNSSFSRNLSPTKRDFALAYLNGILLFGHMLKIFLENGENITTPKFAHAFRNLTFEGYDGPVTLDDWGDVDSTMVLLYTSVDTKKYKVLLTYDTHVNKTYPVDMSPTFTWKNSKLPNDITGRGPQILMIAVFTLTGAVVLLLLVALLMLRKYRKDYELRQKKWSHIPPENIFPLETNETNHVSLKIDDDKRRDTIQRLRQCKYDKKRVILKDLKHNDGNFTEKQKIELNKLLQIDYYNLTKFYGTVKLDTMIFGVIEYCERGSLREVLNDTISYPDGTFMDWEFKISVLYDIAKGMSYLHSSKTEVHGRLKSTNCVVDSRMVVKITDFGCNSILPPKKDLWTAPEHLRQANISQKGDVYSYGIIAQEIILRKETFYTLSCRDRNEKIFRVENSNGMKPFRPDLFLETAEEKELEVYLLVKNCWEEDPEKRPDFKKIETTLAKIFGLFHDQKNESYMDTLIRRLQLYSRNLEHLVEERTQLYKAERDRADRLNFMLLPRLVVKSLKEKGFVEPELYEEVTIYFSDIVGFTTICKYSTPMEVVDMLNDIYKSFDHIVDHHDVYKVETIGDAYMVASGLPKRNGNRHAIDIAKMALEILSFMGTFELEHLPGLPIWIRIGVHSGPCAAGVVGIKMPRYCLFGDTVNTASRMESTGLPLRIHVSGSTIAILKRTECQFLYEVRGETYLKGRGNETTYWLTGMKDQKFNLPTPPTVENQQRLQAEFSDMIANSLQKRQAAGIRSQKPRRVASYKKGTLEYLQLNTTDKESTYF

“SP 316: 14-residue peptide Glu Cys Glu Leu Cys Val Asn Val Ala Cys Thr Gly Cys Leu, positions 3-16, disulfides 4-12 and 7-15 (ECELCVNVACTGCL; disulfide 2-10, 5-13)”: in data set [1], the “ability to enhance intracellular levels of cGMP (ranking in words)” value (from here on “ability to enhance intracellular levels”) is “second in effectiveness”. Moreover, in data set [1] (T84 cells), the “cGMP Level (intracellular cGMP level observed in T84 cells)” value is 275 pmol/well.

Consider “[Glu^2, Glu^3]-UG (NEECELCVNVACTGCL; ends and bridges not checked; cysteine pairing not given here; UniProt Q16661 97-112, looked up, variant D2E D3E) [SP 302, uroguanylin analog, double substitution of Asp's for Glu's]”, for which the “ability to enhance intracellular levels” value in data set [1] is “somewhat weaker”. Moreover, the “cGMP Level (intracellular cGMP level observed in T84 cells)” value in data set [1] (T84 cells) was 225 pmol/well. In addition, in data set [2], the “biological activity after heating for 60 minutes” value is reported as “did not change significantly” and the “biological activity after heating for 90 minutes, relative to original value” (from here on “biological activity … relative to original value”) is given as “about 80%”. Further, the “intracellular production of cGMP at different pH values” in data set [3] is “enhanced intracellular production of cGMP”.

As to “[Glu^2]-UG (NEDCELCVNVACTGCL; ends and bridges not checked; cysteine pairing not given here; UniProt Q16661 97-112, looked up, variant D2E) [SP 303, uroguanylin analog with Glu in position 2]”, the “ability to enhance intracellular levels” value in data set [1] is “somewhat weaker”. Moreover, the “cGMP Level (intracellular cGMP level observed in T84 cells)” value in data set [1] (T84 cells) was 195 pmol/well. For the same substance, in data set [2], the “biological activity after heating for 60 minutes” value was “did not change significantly” and the “biological activity … relative to original value” was “about 80%”. In addition, the “intracellular production of cGMP at different pH values” in data set [3] was “enhanced intracellular production of cGMP”.

On to “bicyclo[4,12; 7,15]Asn^1-Asp^2-Asp^3-Cys^4-Glu^5-Leu^6-Cys^7-Val^8-Asn^9-Val^10-Ala^11-Cys^12-Thr^13-Gly^14-Cys^15-Leu^16 (NDDCELCVNVACTGCL; disulfide 4-12, 7-15; listed as Homo sapiens) [SP 301, human uroguanylin, parent compound, reference compound]”, for which, in data set [1], the “ability to enhance intracellular levels” value is “somewhat weaker”. The “cGMP Level (intracellular cGMP level observed in T84 cells)” value in data set [1] (T84 cells) stood at 205 pmol/well. In addition, in data set [2], the “biological activity after heating for 60 minutes” value is “did not change significantly” and the “biological activity … relative to original value” was “about 80%”. In addition, in data set [3], the “intracellular production of cGMP at different pH values” is “enhanced intracellular production of cGMP”.

As to “Asn^1 Asp^2 Glu^3 Cys^4 Glu^5 Leu^6 Cys^7 Val^8 Asn^9 Val^10 Ala^11 Cys^12 Thr^13 Gly^14 Cys^15 Leu^16 (NDECELCVNVACTGCL; disulfide 4-12, 7-15) [SP 304, [Glu^3]-UG, [4,12; 7,15] bicycle with two disulfide linkages]”, in data set [1], the “ability to enhance intracellular levels” value was “greatest enhancement of intracellular cGMP”. The “cGMP Level (intracellular cGMP level observed in T84 cells)” value in data set [1] (T84 cells) was 315 pmol/well. In addition, the “intracellular cGMP level in combination with sulindac sulfone” value in data set [1] (T84 cells, combination with cGMP dependent phosphodiesterase inhibitor sulindac sulfone) was “synergistic increases”. The “intracellular cGMP level in combination with Zaprinast” value in data set [1] (T84 cells, combination with cGMP dependent phosphodiesterase inhibitor zaprinast) is on record as “synergistic increases”. Further, in data set [2], the “biological activity after heating for 60 minutes” value is on record as “did not change significantly” and the “biological activity … relative to original value” was “remained unaltered”. Further, the “intracellular production of cGMP at different pH values” in data set [3] is given as “enhanced intracellular production of cGMP”. Also, the “enhancement of intracellular cGMP, comparison among peptides” value in data set [3] (pH between 6.5 and 7) is recorded as “greatest enhancement”.
